In patent publication US20140086916A1 (Merck Sharp & Dohme, published 2014):
Values joined by “and” are separate entries in the source; they are usually repeats but may differ in a detail not shown here. Equal entries are not always repeated. Where two headings read alike, the source gives them in different places.

T1: FcγRIIA H (UniProt P12318 34-217, limits assumed)
T1 construct: also called FcgRIIA H
T1 sequence (looked up): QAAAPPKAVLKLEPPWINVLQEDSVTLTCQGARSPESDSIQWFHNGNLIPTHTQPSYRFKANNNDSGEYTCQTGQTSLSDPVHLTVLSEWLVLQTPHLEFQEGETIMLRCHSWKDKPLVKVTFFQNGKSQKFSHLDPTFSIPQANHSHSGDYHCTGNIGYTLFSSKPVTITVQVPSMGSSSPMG

T2: FcγRIIb (Pichia pastoris produced) (UniProt P31994 43-217, limits assumed)
T2 construct: also called FcgRIIB; CD32B
T2 sequence (looked up): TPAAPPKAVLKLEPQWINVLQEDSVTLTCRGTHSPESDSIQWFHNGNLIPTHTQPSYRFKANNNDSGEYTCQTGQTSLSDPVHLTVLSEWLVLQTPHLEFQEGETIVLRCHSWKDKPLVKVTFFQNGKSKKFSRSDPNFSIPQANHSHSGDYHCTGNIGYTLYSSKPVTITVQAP


Columns and labels:
wild-type human PCSK9 = target: T3, wild-type human PCSK9 (human, UniProt Q8NBP7 31-692, limits assumed); experiment: SPR (Biacore T100), antibody captured by anti-human Fc, PCSK9 as analyte, 1:1 model
T3 construct: also called PCSK9 antigen
Procedure: The CM5 chip was immobilized on all flowcells with mouse anti-human IgG (Fc specific) according to the Biacore Human Antibody Capture Kit (Cat# BR-1008-39) to ˜7000RU. Anti-PCSK9 antibodies were captured on the chip to ˜500RU followed by analyte injections of wild-type human PCSK9 from 64.1 nM to 2.0 nM. Each flowcell was regenerated between each analyte injection with 3M MgCl for 40 seconds at 10 uL/min. Data was analyzed with Biacore T100 Evaluation Software using the 1:1 binding model using at least 5 point concentration range sensogram.

[1] = target: T4, FcγRIIIa-V158 (Pichia pastoris produced) (UniProt P08637 17-208, limits assumed); experiment: ELISA-type plate assay, FcγR coated, antibody dimerized with AP-conjugated goat anti-human IgG F(ab')2, RFU readout
T4 construct: also called FcγRIIIA LV; FcgRIIIA LV
T4 sequence (P08637 17-208 F176V limits assumed): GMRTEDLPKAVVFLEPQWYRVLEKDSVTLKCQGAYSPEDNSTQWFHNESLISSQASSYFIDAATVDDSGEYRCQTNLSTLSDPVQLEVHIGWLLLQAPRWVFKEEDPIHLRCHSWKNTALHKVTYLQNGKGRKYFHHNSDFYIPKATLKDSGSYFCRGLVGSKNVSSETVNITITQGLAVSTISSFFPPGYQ
Procedure: (§1) Fcγ receptor binding assays were carried out as described (Shields, et al. (2001) J. Biol. Chem. 276:6591-6604) with minor modifications. High protein binding 96-well plates (Corning Costar) were coated with 100 μL per well of Fcγ receptor solutions in PBS at the following concentrations: 1 μg/mL for both FcγRI (R&D Systems) and FcγRIIa (Pichia pastoris produced), 2 μg/mL for FcγRIIb (P. pastoris produced), 0.8 μg/mL for FcγRIIIa-F158, and 0.4 μg/mL for FcγRIIIa-V158 (both P. pastoris produced). All Pichia pastoris produced receptors were expressed and purified as described (Li, et al. (2006) Nature Biotechnology 24:210-215). Monomeric antibody samples added to the FcγRI plate were serially diluted in assay diluent (1×PBS, 1% BSA, and 0.05% Tween20) and 100 μL, per well was added to the plate. Antibody samples prepared for the remaining receptors require a one hour dimerization step with half molar ratio of goat anti-human IgG F(ab′)2 F(ab′)2 that is conjugated with alkaline phosphatase for detection. These dimerized F(ab′)2/antibody complexes were also serially diluted and 100 μL per well were added to the remaining receptor plates and all plates were incubated for one hour at room temperature. FcγRI bound sample antibody was detected using the same goat anti-human IgG F(ab′)2 alkaline phosphatase conjugated F(ab′)2. Sample antibody binding was quantified by measuring excitation at 340 nm and emission at 465 nm after 18 hour incubation with SuperPhos, 4-MUP Fluorescence AP Substrate Detection System (Virolabs).

[2] = target: T4, FcγRIIIa-V158 (Pichia pastoris produced); experiment: as above; remark: listed apart in the source
Procedure: as §1

[3] = target: T4, FcγRIIIa-V158 (Pichia pastoris produced); experiment: as above; remark: listed apart in the source
Procedure: as §1

[4] = target: T4, FcγRIIIa-V158 (Pichia pastoris produced); experiment: FcγR affinity assay 'as described in Example 7', n = 3; printed as Affinity (nM) ± STDEV
Procedure: as §1

FcγRIIA H = target: T1, FcγRIIA H; experiment: as above
Procedure: as §1

[5] = target: T2, FcγRIIb (Pichia pastoris produced); experiment: as above
Procedure: as §1

[6] = target: T5, FcγRIIIa-F158 (Pichia pastoris produced) (UniProt P08637 17-208, limits assumed); experiment: as above
T5 construct: also called FcγRIIIA LF; FcgRIIIA LF
T5 sequence (P08637 17-208 limits assumed): as the sequence (P08637 17-208 F176V limits assumed) above, with V160F counted along it
Procedure: as §1

[7] = target: T4, FcγRIIIa-V158 (Pichia pastoris produced); experiment: ELISA-type plate assay, FcγR coated, antibody dimerized with AP-conjugated goat anti-human IgG F(ab')2, RFU readout; remark: listed apart in the source
Procedure: as §1

[8] = target: T4, FcγRIIIa-V158 (Pichia pastoris produced); experiment: as above; remark: listed apart in the source
Procedure: as §1

[9] = target: T2, FcγRIIb (Pichia pastoris produced); experiment: as above
Procedure: as §1

[10] = target: T5, FcγRIIIa-F158 (Pichia pastoris produced); experiment: as above
Procedure: as §1

[11] = target: T4, FcγRIIIa-V158 (Pichia pastoris produced); experiment: as above; remark: listed apart in the source
Procedure: as §1

[12] = target: T4, FcγRIIIa-V158 (Pichia pastoris produced); experiment: fold change of the Table 12 affinities
Procedure: as §1

Row | Kd (wild-type human PCSK9) | koff (wild-type human PCSK9) | kon (wild-type human PCSK9) | EC50 (read off the curve) [1] [µg/mL] | EC50 (read off the curve) [2] [µg/mL] | EC50 (read off the curve) [3] [µg/mL] | Kd [4] [nM] | Kd (FcγRIIA H) [nM] | Kd [5] [nM] | Kd [6] [nM] | EC50 (read off the curve) [7] [µg/mL] | EC50 (read off the curve) [8] [µg/mL] | EC50 (read off the curve) [9] [µg/mL] | EC50 (read off the curve) [10] [µg/mL] | EC50 (read off the curve) [11] [µg/mL] | fold change in affinity vs 1F11 IgG1 GS5.0 [12] [fold] | Binder
1 | 3.29 nM and 2.3 nM | 0.000499 s⁻¹ and 0.000407 s⁻¹ | 152000 M⁻¹ s⁻¹ and 177000 M⁻¹ s⁻¹ | ~0.03 | ~0.04 | ~0.03 | 0.15 | 892 | 545 | 203 | ~0.04 | ~0.03 | ~0.2 | ~0.02 | ~0.05 | – | 1F11 wildtype (parent) humanized anti-PCSK9 monoclonal IgG1 antibody (antibody, Produced in glycoengineered Pichia pastoris GFI5.0 (strain YGLY21351); also called 1F11 IgG1 GS5.0; YGLY21351) heavy: not shown light: DIQMTQSPSSLSASVGDRVTITCKASQNVGTNVVWYQQKPGKAPKALIHSASYRYSGVPSRFSGSGSGTDFTLTISSLQPEDFATYYCQQYKTYPYTFGQGTKVEIKRTVAAPSVFIFPPSDEQLKSGTASVVCLLNNFYPREAKVQWKVDNALQSGNSQESVTEQDSKDSTYSLSSTLTLSKADYEKHKVYACEVTHQGLSSPVTKSFNRGEC
2 | – | – | – | ~0.2 | ~0.1 | ~0.2 | 97 | – | – | 2520 | ~0.1 | ~0.1 | – | – | ~0.1 | 647 | 1F11 IgG1 F243A/V264A double mutein anti-PCSK9 antibody (antibody, sialylated N-glycans; also called 1F11 DM; YGLY23258) heavy: not shown light: DIQMTQSPSSLSASVGDRVTITCKASQNVGTNVVWYQQKPGKAPKALIHSASYRYSGVPSRFSGSGSGTDFTLTISSLQPEDFATYYCQQYKTYPYTFGQGTKVEIKRTVAAPSVFIFPPSDEQLKSGTASVVCLLNNFYPREAKVQWKVDNALQSGNSQESVTEQDSKDSTYSLSSTLTLSKADYEKHKVYACEVTHQGLSSPVTKSFNRGEC
